The results in this text go back to paper PMC11372007, “Characterization of a GDS(L)-like hydrolase from Pleurotus sapidus with an unusual SGNH motif” (AMB Express, 2024).

Substrate in series [1]: CCCC(=O)Oc1ccc([N+](=O)[O-])cc1
The series can be described thus: purified protein. It is filed as biochemical, Pleurotus sapidus. As to conditions: apparent constant, esterase assay: potassium phosphate pH 7.0, 0.5% v/v Triton X-100, 30 °C.

Substrate in series [2]: CCCCCCCC(=O)Oc1ccc([N+](=O)[O-])cc1
The series can be described thus: purified protein. It is filed as biochemical, Pleurotus sapidus. As to conditions: apparent constant, esterase assay: potassium phosphate pH 7.0, 0.5% v/v Triton X-100, 30 °C.

B1: PSA_Lip (Pleurotus sapidus) (protein)
chain: AVLPRDAPNGVHLAVDPKCGVAGGRFGDVNIGLKPLTSYEHIVAFGDSWTDGGAHNGEPLPPPVLTPPNPRAGGRASNGPVWVEKLASAAGATLLDFAEIGAVTDKNIWPSSLLPTTASSANDFVGQAHNYINQRNGFDPETTLYTIFLGVGDFDLSQQTGTDNLYTVAGAIVYTILELTSYPTYAKNIIVVDNYGRGIYETPSGDAFKEGIYAGLNTLHTRYGTSVGFVDLKTLWDGVLGSSPGYEAFGYTSKAACLPSSTSTSGACANPESTFYWLPGIPSAATHGLIADYVEKVLTTC
notes: no tag told; semi-native gel band ~118 kDa
Consider B1, for which, in “purified protein [1]”, the Km (usually the concentration of substrate that gives half-maximal velocity) was found to be 1220 µM; the Vmax (as a rule, the top rate of the reaction or transport when substrate is in excess) turned out to be 109 µM/min; the turnover number (kcat) – broadly, the maximal rate divided by the concentration of active sites – is 1.95 s⁻¹; the kcat/Km – broadly, the second-order rate constant that governs catalysis at low substrate concentration – was determined as 1610 M⁻¹ s⁻¹. Further, in “purified protein [2]”, the Km was 330 µM, the Vmax was 122 µM/min, the kcat was 2.19 s⁻¹ and the kcat/Km stood at 6560 M⁻¹ s⁻¹.
